According to patent US20150290289, “METHOD OF PROMOTING WOUND HEALING” (Agency for Science, Technology and Research, published 2015):

B1: pre-miR-198 wild type (ssRNA)
RNA: UCAUUGGUCCAGAGGGGAGAUAGGUUCCUGUGAUUUUUCCUUCUUCUCUAUAGAAUAAAUGA
B2: pre-miR-198 Mut-1 (ssRNA)
RNA: UCAUUGGUCCAGAGGGGAGAUAGGUUCCUCUCAUUUUUCCUUCUUCUCUAUAGAAUAAAUGA
modifications: [NONE]

Legend:
KSRP (KHSRP) [1] = target: T1, KSRP (KHSRP) (UniProt Q92945 Q92945:2-711); test: EMSA; 0.5 uM KSRP, 5 mM MgCl2, 50 mM KCl, yeast tRNA, pH 7.4, room temperature; settings: tags: recombinant, Origene; label: 32P-UTP; hairpin
T1 sequence: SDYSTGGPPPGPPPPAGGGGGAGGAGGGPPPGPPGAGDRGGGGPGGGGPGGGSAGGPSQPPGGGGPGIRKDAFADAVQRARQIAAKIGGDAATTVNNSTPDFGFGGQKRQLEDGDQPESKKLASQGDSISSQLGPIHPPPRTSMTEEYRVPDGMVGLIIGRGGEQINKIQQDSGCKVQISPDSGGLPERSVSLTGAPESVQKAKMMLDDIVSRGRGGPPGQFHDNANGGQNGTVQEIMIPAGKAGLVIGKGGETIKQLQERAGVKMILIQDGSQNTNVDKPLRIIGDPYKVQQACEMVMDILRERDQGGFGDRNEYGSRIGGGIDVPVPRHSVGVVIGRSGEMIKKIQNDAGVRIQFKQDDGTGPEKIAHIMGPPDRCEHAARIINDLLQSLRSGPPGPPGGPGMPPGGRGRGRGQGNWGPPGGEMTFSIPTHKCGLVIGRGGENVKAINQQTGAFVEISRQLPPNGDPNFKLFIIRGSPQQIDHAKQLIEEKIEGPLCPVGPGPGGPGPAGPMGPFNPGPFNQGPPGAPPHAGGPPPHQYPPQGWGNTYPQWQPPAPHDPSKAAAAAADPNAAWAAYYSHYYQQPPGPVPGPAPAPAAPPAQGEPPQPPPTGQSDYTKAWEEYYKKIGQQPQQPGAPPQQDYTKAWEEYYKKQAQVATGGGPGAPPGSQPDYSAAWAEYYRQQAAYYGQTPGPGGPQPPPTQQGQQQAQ
Procedure: (§1) The pre-miR-198 substrate for gel retardation assay was prepared as described above. Pre-miR-198 transcripts with mutated terminal loop and stem sequences (FIG. 11B) were generated by mutating the parental plasmid (pBSKS) constructs with Quickchange site directed mutagenesis Kit (Stratagene). Recombinant KSRP protein (0.5 μM) was incubated with the wild type or mutant pre-miR-198 transcripts in 20 μl of reaction buffer containing 30 mM Tris HCl, pH 7.4, 5 mM MgCl₂, 50 mM KCl, 0.5 mM DTT, 40 u/ml of RNaseOUT, 250 μg/ml of yeast tRNA and 10% glycerol. After 30 min at room temperature, reaction products were resolved through 6% native polyacrylamide gel electrophoresis. Gel was dried and the protein RNA complex and unbound RNA were visualized by phosphorimaging.

KSRP (KHSRP) [2] = target: T1, KSRP (KHSRP); test: EMSA; binding abrogated; 0.5 uM KSRP; settings: tags: recombinant, Origene; label: 32P-UTP; hairpin
Procedure: as §1

| Binder | binding result (KSRP (KHSRP) [1]) | binding result (KSRP (KHSRP) [2]) |
| --- | --- | --- |
| B1 | binds | – |
| B2 | – | no binding |
